Results on five molecules are retold here after article PMC11413788, “The heterobivalent (SSTR2/albumin) radioligand [^67Cu]Cu-NODAGA-cLAB4-TATE enables efficient somatostatin receptor radionuclide theranostics” (Theranostics, 2024).

In data set [1] the test system is MPC cells. Kind of data set: Uptake of radioligands in intact MPC cells (acid wash). The data set is classed as cell-based, mouse. The conditions noted are these: 25 nmol/L; for Uptake fraction: non-acid-releasable fraction normalized to specifically bound radioligand. As for the experimental part: Uptake of SSTR2 radioligands was measured and analyzed as previously described, with some modifications. In brief, radioligands were prepared at a molar activity of 25 MBq/nmol. […] Non-specific binding and uptake were measured in presence of 1 µmol/L acetyl-TATE. The uptake fraction of radioligands was measured after acid wash with Dulbecco's phosphate-buffered saline containing 0.9 mmol/L CaCl2, 0.5 mmol/L MgCl2, and 0.05 mol/L glycine, pH 2.8, for 5 min.

The conditions of data set [2]: cited from earlier work.
For data set [3], the system named is MPC cells. It counts as cell-based, mouse. To be noted: relative loss normalized to initial SSTR2-specific binding. The protocol:
MPC cells (2.25 × 10^5/well) were seeded into collagen coated CELLSTAR 48‑well microplates (Greiner Bio‑One, 67180) and grown for three days. Cell culture medium and washing buffer were pre-warmed at 37 °C, unless specified otherwise. Radioligands were prepared at a molar activity of 40 MBq/nmol. Cells were incubated with the radioligands at a final concentration of 2.5 nmol/L in 0.5 mL of cell culture medium for 1 hour at 37 °C. Non-specific binding was determined in presence of 1 µmol/L acetyl-TATE. Binding to plastic surfaces was determined in cell-free cavities. At the end of radioligand exposure, incubation medium was removed, and cells were washed three times with Dulbecco's phosphate-buffered saline containing 0.9 mmol/L CaCl2 and 0.5 mmol/L MgCl2. Cells were overlayed with 0.5 mL of radioligand-free medium and further incubated at 37 °C for a total duration of 24 hours. At specific sampling points (1, 2, 5, and 24 hours), supernatants were removed from all cavities. […] Activity of cell homogenates was measured using the gamma counter Wizard^2 2480 (PerkinElmer, Waltham, MA, USA). Release kinetics were analyzed by non-linear regression using the 'two phase decay' model implemented in Prism 10 (GraphPad Software) with the 'Top' and 'Bottom' parameters constrained at 100 %, and 0 %, respectively.

Data set [4] deals with HEK293-SSTR2+ tumor xenografts. The conditions noted are these: within seven days, cited from earlier work.
A short description of data set [5]: Tissue pharmacokinetics by quantitative SPECT imaging in MPC allograft mice. To be noted: mouse, in vivo; for tissue uptake per volume at 1 h / tissue uptake per volume at 5 h / tissue uptake per volume at 72 h / tissue uptake per volume at 168 h / Heart (blood) concentration half-life eff. / Liver concentration half-life eff. / Total body contents half-life eff.: female; for tissue uptake per volume at 1 h / tissue uptake per volume at 5 h / tissue uptake per volume at 72 h / tissue uptake per volume at 168 h: Rj:NMRI-Foxn1^nu/nu nude, iv, 50 MBq, total radioactivity; for Heart (blood) concentration half-life eff. / Liver concentration half-life eff. / Total body contents half-life eff.: nude (Rj:NMRI-Foxn1^nu/nu). The protocol: All animal experiments were carried out according to the guidelines of the German Regulations for Animal Welfare and have been approved by the local Ethical Committee for Animal Experiments. MPC cells (4 × 10^6) were injected subcutaneously into the shoulder of 10-14‑week‑old female nude mice (Rj:NMRI-Foxn1^nu/nu, Janvier Labs, Le Genest-Saint-Isle, France). Prior to treatment and imaging procedures, anesthesia was induced and maintained with inhalation of 10 % (v/v) desflurane in 30/10 % (v/v) oxygen/air. During anesthesia, animals were continuously warmed at 37 °C. Body weight was monitored three times per week and tumor diameters were measured using a caliper. Tumor volume was calculated assuming a tri‑axial ellipsoid with the diameters a, b, and c using the formula V = π/6 × a × b × c. For urine collection, animals were separated in clear conventional rodent boxes. After spontaneous micturition, voided urine was aspirated with a pipette tip, diluted 1:2 with ultrapure water and stored at -80 °C until further processing. For blood sampling, animals were placed in a restrainer and 50 µL of blood were collected from a lateral tail vein using a syringe needle rinsed with heparin. Blood samples were mixed with 4 µL of a 10 % (w/v) aqueous potassium-EDTA solution and kept at 4 °C until further processing. Animals were sacrificed using CO2 inhalation and cervical dislocation.
Tumor-bearing mice were treated with the SSTR2 radioligands at a single initial activity dose of 50 MBq delivered in 0.2 mL of 0.154 mol/L NaCl(aq) through injection into a tail vein (see Supporting information, Table S 1 for further details). Small-animal single-photon emission computed tomography (SPECT) was performed using the Mediso NanoScan® SPECT/CT (Mediso Medical Imaging Systems, Budapest, Hungary). […] With each SPECT scan, a corresponding CT image was recorded and used for anatomical referencing and attenuation correction. Details on image acquisition and reconstruction parameters are included in the Supporting information.
Regions of interest (ROIs) were generated using tissue-specific signal intensity thresholds. ROI-averaged activity concentrations in tissues [MBq/mL] were determined. Details on SPECT image resolution, image quantification tests, and tissue delineation are included in the Supporting information.
(§1) Unless specified otherwise, all activity values are reported without decay correction. Time courses of normalized activity concentrations [% initial A/mL] (organs, tumors) or normalized activity amounts [% initial A] (total body, urinary bladder) were analyzed by non-linear regression using the 'One-phase decay', 'Plateau followed by one-phase decay', or 'Two-phase decay' models implemented in Prism 10 (GraphPad Software), with extrapolated y‑values approaching a lower limit constrained to 0. The normalized time-cumulated activity per milliliter of tissue [% initial A/mL × d] was calculated from areas under time-activity curves. For dose estimation in tumors and kidneys, these values were further converted into total time-cumulated organ activity per initial activity dose [MBq × h/MBq] using a realistic dosimetry model for 30‑g‑mice implemented in Olinda 2.2.3 (Hermes Medical Solutions AB, Stockholm, Sweden). The physical density of tissues was assumed to be 1 g/cm^3. The radionuclide-specific mean absorbed tissue dose DT [Gy] in tumors and kidneys was calculated using the sphere model in Olinda 2.2.3 (Hermes Medical Solutions AB).
Method: Extraction of tissue -specific activity concentrations from SPECT/CT images Tissue-specific regions of interest (ROIs) were generated in ROVER 3.0.77h (ABX). Sphere masks were positioned to pre -select tissue -specific regions for delineation. ROIs were generated within the masks using tissue -specific threshold -based delineation (% of maximum voxel intensity within the given mask)

The conditions of data set [6]: human. As for the experimental part: Tissue-specific pharmacokinetic profiles of radioligands in mice were transformed into human time scale and organ masses using allometric scaling, and dose calculations were performed as reported elsewhere, with some modifications. In brief, projected cumulated activity in human organs was calculated by curve fitting as described above for investigations in mice. Calculations were performed separately for female and male subjects. Cumulated activity in the urinary bladder was determined assuming a voiding interval of four hours. Projected human doses were calculated for male and female subjects using the ICRP 89 Adult Female (60 kg) and ICRP 89 Adult Male (73 kg) models implemented in Olinda 2.2.3 (Hermes Medical Solutions AB).

Data set [7] is described as follows: Absorbed dose calculation in tumors and kidneys of MPC allograft mice. To be noted: mouse, in vivo. As for the experimental part:
as §1

The test system of another data set is GOT‑1 xenografts. The conditions noted are these: mouse, in vivo; cited from earlier work.
A further data set deals with NCI‑H69 xenografts. The conditions noted are these: mouse, in vivo; cited from earlier work.
The conditions of data set [8]: mouse, in vivo; cited from earlier work.
The conditions of data set [9]: cited from earlier work. The source holds these as a separate data set.

Like-named read-outs stand apart in the source and are kept apart here. Some results are limits rather than exact numbers.

For the molecule `C[C@@H](O)[C@H](NC(=O)[C@@H]1CSSC[C@H](NC(=O)[C@@H](Cc2ccccc2)NC(=O)CN2CCN(CC(=O)O)CCN(CC(=O)O)CCN(CC(=O)O)CC2)C(=O)N[C@@H](Cc2ccc(O)cc2)C(=O)N[C@H](Cc2c[nH]c3ccccc23)C(=O)N[C@@H](CCCCN)C(=O)N[C@@H]([C@@H](C)O)C(=O)N1)C(=O)O` [[^68Ga]Ga‑DOTA-TATE, metal not drawn], the Uptake fraction with MPC cells [1] (listed as DOTA ^68Ga) is given as 87 ± 1.9%.

On to `C[C@@H](O)[C@H](NC(=O)[C@@H]1CSSC[C@H](NC(=O)[C@@H](Cc2ccccc2)NC(=O)CCC(C(=O)O)N2CCN(CC(=O)O)CCN(CC(=O)O)CC2)C(=O)N[C@@H](Cc2ccc(O)cc2)C(=O)N[C@H](Cc2c[nH]c3ccccc23)C(=O)N[C@@H](CCCCN)C(=O)N[C@@H]([C@@H](C)O)C(=O)N1)C(=O)O` (stereo partly drawn) [[^64Cu]Cu‑NODAGA-TATE, metal not drawn], for which the plasma half-life in data set [2] is over 24 h. Besides, in the data set on MPC cells [3], the 24 h release is given as 73 ± 1.9^ # %. The same molecule returned a Fast fraction in the data set with MPC cells [3] (1 hour exposure) of 42 ± 3.3%. Besides, the “effective uptake lower compared to [177Lu]Lu-DOTA-TATE” value in the data set with MPC cells [1] (MPC cells) is 77%. Besides, the Uptake fraction with MPC cells [1] amounted to 64 ± 4.1%.

On to `C[C@@H](O)[C@H](NC(=O)[C@@H]1CSSC[C@H](NC(=O)[C@@H](Cc2ccccc2)NC(=O)CN2CCN(CC(=O)O)CCN(CC(=O)O)CCN(CC(=O)O)CC2)C(=O)N[C@@H](Cc2ccc(O)cc2)C(=O)N[C@H](Cc2c[nH]c3ccccc23)C(=O)N[C@@H](CCCCN)C(=O)N[C@@H]([C@@H](C)O)C(=O)N1)C(=O)O` [[^64Cu]Cu‑DOTA-TATE, metal not drawn], for which, in data set [4] (reported, reference not given), the “release from tumor xenografts” value is listed as 86%. This molecule also came in with an Uptake fraction in the data set with MPC cells [1] (listed as DOTA ^64Cu) of 61 ± 4.6%.

As for `C[C@@H](O)[C@H](NC(=O)[C@@H]1CSSC[C@H](NC(=O)[C@@H](Cc2ccccc2)NC(=O)CCC(C(=O)O)N2CCN(CC(=O)O)CCN(CC(=O)O)CC2)C(=O)N[C@@H](Cc2ccc(O)cc2)C(=O)N[C@H](Cc2c[nH]c3ccccc23)C(=O)N[C@@H](CCCCN)C(=O)N[C@@H]([C@@H](C)O)C(=O)N1)C(=O)O` (stereo partly drawn) [[^67Cu]Cu‑NODAGA-TATE, metal not drawn], the tissue uptake per volume at 1 h in data set [5] (Heart) amounted to 0.35 ± 0.13 %ID/mL. Moreover, in [5] (Kidneys), the tissue uptake per volume at 1 h stood at 6.69 ± 0.46 %ID/mL and the tissue uptake per volume at 5 h stood at 3.87 ± 0.26 %ID/mL. In data set [5] (Liver), the tissue uptake per volume at 1 h was 0.63 ± 0.01 %ID/mL, the tissue uptake per volume at 5 h turned out to be 0.57 ± 0.01 %ID/mL, the tissue uptake per volume at 72 h is 0.15 ± 0.04 %ID/mL and the tissue uptake per volume at 168 h was 0.03 ± 0.02 %ID/mL. In [5] (Tumor), the tissue uptake per volume at 1 h was 17.7 ± 1.83 %ID/mL, the tissue uptake per volume at 5 h stood at 13.5 ± 1.4 %ID/mL and the tissue uptake per volume at 72 h stood at 0.14 ± 0.01 %ID/mL. Besides, in data set [5], the “Heart (blood) concentration half-life eff.” value was 7.8 min, the “Liver concentration half-life eff.” value worked out at 20.1 ± 4.02 h and the “Total body contents half-life eff.” value was 19.2 min. The “extrapolated female blood effective half-life” value in data set [6] is 52.8 min. For the same molecule, in data set [7], the “DT, Kidneys (mean absorbed dose in kidneys)” value was 2.42 ± 0.20 Gy and the “estimated absorbed dose in kidneys” value was 2.42-2.81 Gy/50 MBq.

Take `C[C@@H](O)[C@H](NC(=O)[C@@H]1CSSC[C@H](NC(=O)[C@@H](Cc2ccccc2)NC(=O)CN2CCN(CC(=O)O)CCN(CC(=O)O)CCN(CC(=O)O)CC2)C(=O)N[C@@H](Cc2ccc(O)cc2)C(=O)N[C@H](Cc2c[nH]c3ccccc23)C(=O)N[C@@H](CCCCN)C(=O)N[C@@H]([C@@H](C)O)C(=O)N1)C(=O)O` [[^177Lu]Lu‑DOTA-TATE, metal not drawn]: the tissue uptake per volume at 1 h in [5] (Heart) is 0.21 ± 0.18 %ID/mL. In addition, in data set [5] (Kidneys), the tissue uptake per volume at 1 h was 4.05 ± 0.01 %ID/mL, the tissue uptake per volume at 5 h is 3.23 ± 0.04 %ID/mL and the tissue uptake per volume at 72 h turned out to be 0.08 ± 0.01 %ID/mL. In addition, in [5] (Liver), the tissue uptake per volume at 1 h is 0.24 ± 0.04 %ID/mL. In addition, in data set [5] (Tumor), the tissue uptake per volume at 72 h is 6.79 ± 0.55 %ID/mL and the tissue uptake per volume at 168 h amounted to 1.33 ± 0.11 %ID/mL. Moreover, the tissue uptake per volume at 1 h in data set [5] (1 h, decay-corrected, Am 40 MBq/nmol, read-out: Tumor) was found to be 22.7 ± 1.84 %ID/mL. In data set [5], the “Heart (blood) concentration half-life eff.” value was 7.8 min, the “Liver concentration half-life eff.” value amounted to 1.14 ± 0.02 h, the “Total body contents half-life eff.” value turned out to be 15 min and the “release from MPC tumors” value is reported as 94%. Further, in the data set with GOT‑1 xenografts, the “absorbed tumor dose per administered activity” value is listed as 0.27 Gy, the “release from tumor xenografts” value is 47% and the “total absorbed dose in tumors” value is given as 8.1 Gy. Besides, in [4], the “release from tumor xenografts” value is reported as 95%. In the data set with NCI‑H69 xenografts, the “absorbed tumor dose per administered activity” value was 0.33-0.36 Gy/MBq, the “release from tumor xenografts” value is recorded as 68−85% and the “total absorbed dose in tumors” value is listed as 10.0-10.2 Gy. For the same molecule, the “extrapolated female blood effective half-life” value in data set [6] was 49.8 min. In data set [7], the “DT, Kidneys (mean absorbed dose in kidneys)” value is given as 2.81 ± 0.14 Gy; the “absorbed doses in MPC tumors” value is 22.0-41.1 Gy; the “estimated absorbed dose in kidneys” value is 2.42-2.81 Gy/50 MBq; the “highest absorbed dose in MPC tumors per administered activity” value is recorded as 0.80-0.82 Gy/MBq. Further, in [8], the “threshold dose for proximal tubular damage, absorbed in renal cortex” value was 24 Gy. In data set [9] (clinical experience), the “total absorbed kidney doses well tolerated without acute nephrotoxicity” value is “up to 23 Gy”. Moreover, the “human effective dose in clinical dosimetry” value in data set [9] (human, in vivo) is 0.069 mSv/MBq.
